According to US20070014810A1, “Inducing cellular immune responses to human papillomavirus using peptide and nucleic acid compositions” (priority 2003, published 2007):

How the values were obtained:
HLA-A*3002 (human) [1] = assay: inhibition of 125I-labelled probe peptide binding to purified HLA, gel filtration; standard peptide (allele listed again under supertype A24)
HLA-A*3002 (human) [2] = assay: inhibition of 125I-labelled probe peptide binding to purified HLA, gel filtration; standard peptide
HLA-DRB1*0901 (human) = molecular target: T1, HLA-DRB1*0901 (human)
T1 chain 1: not shown
T1 chain 2: not shown

HLA-A*2902 (human) [3] = assay: inhibition of 125I-labelled probe peptide binding to purified HLA, gel filtration; standard peptide (allele listed again under supertype A24)
HLA-A*2902 (human) [4] = assay: inhibition of 125I-labelled probe peptide binding to purified HLA, gel filtration; standard peptide
HLA-A*0101 (human) = assay: as above

Binder: RISGVDRYY (modifications not checked)
- IC50 (HLA-A*3002 (human) [1]): 3 nM
- IC50 (HLA-A*3002 (human) [2]): 3 nM

Binder: AKFVAAWTLKAAA (modifications not checked)
- IC50 (HLA-DRB1*0901 (human)): 75 nM

Binder: YTAVVPLVY (modifications not checked)
- IC50 (HLA-A*2902 (human) [3]): 5 nM
- IC50 (HLA-A*2902 (human) [4]): 5 nM
- IC50 (HLA-A*0101 (human)): 5 nM
